Drawing on PMC3021567, “Gene expression profiling of connective tissue growth factor (CTGF) stimulated primary human tenon fibroblasts reveals an inflammatory and wound healing response in vitro” (Molecular Vision, 2011), this text covers Kd for one molecule.

For the test, the target named is T1, recombinant human connective tissue growth factor (human, UniProt P29279 27-349).
T1 construct: signal peptide in the construct; connective tissue growth factor (CTGF), human, cDNA for full-length rhCTGF aa 1-349, Swiss-Prot P29279; secreted into the supernatant of HEK293T cells; The purified protein runs as two bands, 36 kDa (unglycosylated) and 38 kDa (glycosylated); No tag is mentioned; also called hCTGF; rhCTGF
T1 sequence (looked up): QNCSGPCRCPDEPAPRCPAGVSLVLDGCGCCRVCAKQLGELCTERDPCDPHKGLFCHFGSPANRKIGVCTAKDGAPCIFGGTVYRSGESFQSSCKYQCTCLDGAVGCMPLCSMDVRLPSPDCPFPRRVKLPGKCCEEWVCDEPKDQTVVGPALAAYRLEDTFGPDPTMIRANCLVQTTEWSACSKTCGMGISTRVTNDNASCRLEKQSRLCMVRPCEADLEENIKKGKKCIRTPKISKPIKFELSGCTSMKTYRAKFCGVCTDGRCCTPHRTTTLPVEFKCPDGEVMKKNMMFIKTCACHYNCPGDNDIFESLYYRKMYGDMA
Nature of the test: SPR; BIACORE 2000; biotinylated BMP-2 immobilised on a streptavidin-coated CM5 chip at about 500 RU; CTGF flowed over at 10 ul/min, 25 °C; association 5 min, dissociation 3 min; regeneration with 4 M MgCl2; kinetic data fitted to a 1:1 Langmuir model; two independent experiments, at least six concentrations; apparent KD. The following applies: both partners purified.

B1: bone morphogenetic protein 2 (ligand, UniProt P12643 283-396, looked up)
chain: QAKHKQRKRLKSSCKRHPLYVDFSDVGWNDWIVAPPGYHAFYCHGECPFPLADHLNSTNHAIVQTLVNSVNSKIPKACCVPTELSAISMLYLDENEKVVLKNYQDMVVEGCGCR
modifications: biotin (biotinylated BMP-2; site not stated)
notes: bone morphogenetic protein 2 (BMP-2); also called BMP-2; source: expressed and purified as described [19]
For B1, the Kd worked out at 400 nM.
